Starred links: 1 amine or outer side, 2 acyl side, 3 side chain; linkers in the order of their positions; H or OH if unused. Non-standard residues stand in square brackets, D forms with d. Groups on a side chain read outwards from the residue. No end group written: not given here. *: point of attachment. C16 = C16 fatty acyl group, not further defined; C18 diacid = O=C(O)CCCCCCCCCCCCCCCCC(=O)*; Lys(N3) = [N-]=[N+]=NCCCC[C@H](N)C(=O)O; γGlu = O=C(O)[C@H](CCC(=O)[*:2])N[*:1]; Met(O2) = CS(=O)(=O)CC[C@H](N)C(=O)O; Palmitoyl = CCCCCCCCCCCCCCCC(=O)*; AEEA = NCCOCCOCC(=O)O; Aib = CC(C)(N)C(=O)O
B1: PEP76 (control molecule of Table 7) (peptide)
peptide: H[dS]QGTFTSDK([γGlu-γGlu-Palmitoyl])SKYLDERAAQDFVQWLLDT-NH2
modifications: N-terminus assumed
SMILES: CCCCCCCCCCCCCCCC(=O)N[C@@H](CCC(=O)N[C@@H](CCC(=O)NCCCC[C@H](NC(=O)[C@H](CC(=O)O)NC(=O)[C@H](CO)NC(=O)[C@@H](NC(=O)[C@H](Cc1ccccc1)NC(=O)[C@@H](NC(=O)CNC(=O)[C@H](CCC(N)=O)NC(=O)[C@@H](CO)NC(=O)[C@@H](N)Cc1c[nH]cn1)[C@@H](C)O)[C@@H](C)O)C(=O)N[C@@H](CO)C(=O)N[C@@H](CCCCN)C(=O)N[C@@H](Cc1ccc(O)cc1)C(=O)N[C@@H](CC(C)C)C(=O)N[C@@H](CC(=O)O)C(=O)N[C@@H](CCC(=O)O)C(=O)N[C@@H](CCCNC(=N)N)C(=O)N[C@@H](C)C(=O)N[C@@H](C)C(=O)N[C@@H](CCC(N)=O)C(=O)N[C@@H](CC(=O)O)C(=O)N[C@@H](Cc1ccccc1)C(=O)N[C@H](C(=O)N[C@@H](CCC(N)=O)C(=O)N[C@@H](Cc1c[nH]c2ccccc12)C(=O)N[C@@H](CC(C)C)C(=O)N[C@@H](CC(C)C)C(=O)N[C@@H](CC(=O)O)C(=O)N[C@H](C(N)=O)[C@@H](C)O)C(C)C)C(=O)O)C(=O)O

Key:
Test in all cases: cell-based or functional assay
human GLP-1 receptor = human GLP-1 receptor (human, UniProt P43220 24-463)
human glucagon receptor = human glucagon receptor (human, UniProt P47871 26-477)
[1] = target: human Glucagon receptor (GCGR) (human, UniProt P47871 26-477)
[2] = target: human GLP-1 receptor (GLP1R) (human, UniProt P43220 24-463)

Row | Binder | Incretin Receptor Assay (cAMP) EC50 (human GLP-1 receptor) | Incretin Receptor Assay (cAMP) EC50 (human glucagon receptor) | hGCGR_EC50 (nM), cAMP assay [1] | hGLP1R EC50 (nM), cAMP assay [2]
1 | B1 | 0.007 nM | 0.009 nM |  | 
2 | H[dS]QGTFTSDK([γGlu-γGlu-C16])SKYLDERAAQ[Lys(N3)]FVQWLLDT-NH2 [PEP1] |  |  | 0.01 nM | 
3 | H[Aib]QGTFTSDYSKYLDARAAK([AEEA-AEEA-γGlu-C18 diacid])DFV[Lys(N3)]WL[Met(O2)]DT-NH2 [PEP30] |  |  | 2.27 nM | 0.5 nM
4 | H[Aib]QGTFTSDYSKYLDARAAK([AEEA-AEEA-γGlu-C20‑OH])DFV[Lys(N3)]WL[Met(O2)]DT-NH2 [PEP31] |  |  | 4.24 nM | 1.38 nM
5 | HXEGTFTSDKSKYLDERAAQDFVXWLLDT (D-serine at 2; Lys 10 conjugated to γEγE-C16; Nle(εN3) at 24; C-terminal amide) [PEP75] |  |  | > 5 nM | 

From US20230105982A1 (Merck Sharp & Dohme, published 2023)
